Test results published in paper PMC4157346.

Legend:
[1] = target: CXCR1 receptor on stably transfected RBL-2H3 cells (UniProt P25024)
[2] = target: CXCR1 receptor on stably transfected RBL-2H3 cells (UniProt P25024); test: radioligand binding
[3] = target: CXCR2 receptor on stably transfected RBL-2H3 cells (human) (UniProt P25025); test: radioligand binding

EC50 of Ca2+ release, CXCR1-transfected RBL-2H3 cells [1] | Kd [2] | Kd [3] | Substance
10.7 nM |  |  | CXCL8 P32A mutant (ligand)
2.5 nM | 4.1 nM | 5.4 nM | CXCL8 wild type (from UniProt P10145 21-99) (ligand)
> 1000 nM |  |  | CXCL8 P32G mutant (ligand)
22.9 nM |  |  | CXCL8 G31V mutant (ligand)
